Assay results: patent US20140275489A1 (Regeneron, published 2014)

T1: full-length human APLNR (amino acids 1-380 of accession number NP-005152.1) (human, UniProt P35414 1-380)
T1 sequence (looked up): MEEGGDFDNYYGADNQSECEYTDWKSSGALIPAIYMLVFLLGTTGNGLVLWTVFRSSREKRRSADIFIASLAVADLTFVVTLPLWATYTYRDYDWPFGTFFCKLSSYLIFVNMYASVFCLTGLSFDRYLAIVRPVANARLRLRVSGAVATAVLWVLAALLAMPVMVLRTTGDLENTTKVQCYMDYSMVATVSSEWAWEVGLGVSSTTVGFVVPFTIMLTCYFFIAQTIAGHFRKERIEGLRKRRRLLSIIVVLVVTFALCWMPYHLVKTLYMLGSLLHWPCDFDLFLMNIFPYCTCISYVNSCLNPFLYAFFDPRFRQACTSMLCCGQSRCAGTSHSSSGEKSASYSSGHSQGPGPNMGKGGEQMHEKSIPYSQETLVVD


molecular target: T1, full-length human APLNR (amino acids …); assay: cell-based or functional assay

Row | Binder | EC50 (M), CRE assay (cAMP reporter) in HEK293/CRE-luc/hAPLNR cells [M]
1 | PRLSHKGPMPF [Apelin-11] | 4.38e-10
2 | RPRLSHKGPMP [Apelin66-76] | 5.19e-12
3 | RPRLSHKGPM [Apelin66-75] | 2.17e-12

Now from value to binder:

Row | EC50 (M), CRE assay (cAMP reporter) in HEK293/CRE-luc/hAPLNR cells [M] | Binder
4 | 1.14e-13 | PRLSHKGPMP [Apelin67-76]
5 | 3.74e-07 | PRLSHKGPM [Apelin67-75]
6 | 1.47e-10 | QRPRLSHKGPMPFGGGGG [Apelin-13 + 5G]
